T1: AF9 (UniProt P42568 1-568)
T1 construct: AF9 (MLLT3), a YEATS domain-containing protein
T1 sequence (looked up): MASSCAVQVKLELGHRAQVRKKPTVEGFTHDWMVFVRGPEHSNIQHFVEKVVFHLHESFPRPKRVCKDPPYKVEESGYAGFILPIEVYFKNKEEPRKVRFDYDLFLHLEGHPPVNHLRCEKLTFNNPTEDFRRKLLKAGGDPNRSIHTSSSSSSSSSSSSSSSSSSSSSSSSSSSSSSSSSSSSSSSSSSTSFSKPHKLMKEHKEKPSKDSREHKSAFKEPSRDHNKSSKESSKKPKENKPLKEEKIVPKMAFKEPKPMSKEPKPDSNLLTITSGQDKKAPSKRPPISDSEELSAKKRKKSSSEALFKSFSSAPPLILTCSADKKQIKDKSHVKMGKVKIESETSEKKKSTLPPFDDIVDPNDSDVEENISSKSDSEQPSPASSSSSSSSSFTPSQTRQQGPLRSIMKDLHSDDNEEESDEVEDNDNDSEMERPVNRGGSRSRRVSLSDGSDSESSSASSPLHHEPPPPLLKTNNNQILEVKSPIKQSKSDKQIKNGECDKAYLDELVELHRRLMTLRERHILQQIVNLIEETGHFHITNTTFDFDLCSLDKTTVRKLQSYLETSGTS

B1: ENL (endogenous) (natural protein)
chain: MDNQCTVQVRLELGHRAQLRKKPTTEGFTHDWMVFVRGPEQCDIQHFVEKVVFWLHDSFPKPRRVCKEPPYKVEESGYAGFIMPIEVHFKNKEEPRKVCFTYDLFLNLEGNPPVNHLRCEKLTFNNPTTEFRYKLLRAGGVMVMPEGADTVSRPSPDYPMLPTIPLSAFSDPKKTKPSHGSKDANKESSKTSKPHKVTKEHRERPRKDSESKSSSKELEREQAKSSKDTSRKLGEGRLPKEEKAPPPKAAFKEPKMALKETKLESTSPKGGPPPPPPPPPRASSKRPATADSPKPSAKKQKKSSSKGSRSAPGTSPRTSSSSSFSDKKPAKDKSSTRGEKVKAESEPREAKKALEVEESNSEDEASFKSESAQSSPSNSSSSSDSSSDSDFEPSQNHSQGPLRSMVEDLQSEESDEDDSSSGEEAAGKTNPGRDSRLSFSDSESDNSADSSLPSREPPPPQKPPPPNSKVSGRRSPESCSKPEKILKKGTYDKAYTDELVELHRRLMALRERNVLQQIVNLIEETGHFNVTNTTFDFDLFSLDETTVRKLQSCLEAVAT
B2: β-hydroxybutyryl histone H3 1-17 peptide (H3K9bhb) (peptide, UniProt P68431 2-18, looked up)
peptide: ARTKQTARKSTGGKAPR
modifications: β-hydroxybutyryl-lysine at K9
notes: histone H3, residues 1-17; The text calls the ITC peptides 'histone H3K14 (1–17) peptides', the legend 'H31-17 peptides'; also called H3K9bhb peptide; source: synthetic peptide (Beijing SciLight Biotechnology, HPLC purified)

Key:
[1] = target: Probe H3K9bhb (Kbhb-installed histone H3 peptide on gold nanoparticles with photo-cross-linker-linked PEG); assay: affinity purification with mass spectrometry; photoaffinity enrichment with probes H3K9bhb and H3K9, read out by parallel reaction monitoring (PRM) mass spectrometry
GAS41 = target: T2, GAS41 (UniProt O95619 1-227); assay: ITC; MicroCal PEAQ ITC, 15°C; protein at 100 μM dropped into the 1000 μM peptide, 19 drops; one set of binding sites model; settings: both partners purified
T2 construct: GAS41 (YEATS4), a YEATS domain-containing protein

AF9 = target: T1, AF9; assay: as above; settings: both partners purified

T2 sequence (O95619 whole entry, the tested form may be a part): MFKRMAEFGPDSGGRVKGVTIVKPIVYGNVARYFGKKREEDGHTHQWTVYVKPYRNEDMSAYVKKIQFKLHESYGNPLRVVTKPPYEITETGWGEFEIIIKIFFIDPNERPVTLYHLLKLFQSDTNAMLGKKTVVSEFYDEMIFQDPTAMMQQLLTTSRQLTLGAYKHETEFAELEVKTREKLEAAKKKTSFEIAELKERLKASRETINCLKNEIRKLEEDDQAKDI

| Binder | fold enrichment over probe H3K9 [1] | Kd (GAS41) | Kd (AF9) |
| --- | --- | --- | --- |
| B1 | 3.9 fold | – | – |
| B2 | – | 6.7 µM | 11 µM |
